Target: TREM2 R77D, biotinylated (human) (UniProt Q9NZC2)
Assay: BLI

Chain of TREM2 R77D, biotinylated (human) (Q9NZC2 19-230 R77D): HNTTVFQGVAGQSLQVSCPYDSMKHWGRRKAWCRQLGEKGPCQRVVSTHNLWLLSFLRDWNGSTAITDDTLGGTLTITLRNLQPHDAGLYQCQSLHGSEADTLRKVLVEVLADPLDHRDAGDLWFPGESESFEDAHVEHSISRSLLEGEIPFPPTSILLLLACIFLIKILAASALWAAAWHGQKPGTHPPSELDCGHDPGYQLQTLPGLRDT

B1: Human IL-34 (19-241) (ligand)
chain: LGNEPLEMWPLTQNEECTVTGFLRDKLQYRSRLQYMKHYFPINYKISVPYEGVFRIANVTRLQRAQVSERELRYLWVLVSLSATESVQDVLLEGHPSWKYLQEVETLLLNVQQGLTDVEVSPKVESVLSLLNAPGPNLKLVRPKALLDNCFRVMELLYCSCCKQSSVLNWQDCEVPSPQSCSPEPSLQYAATQLYPPPPWSPSSPPHSTGSVRPVRAQGEGLL
**Q.** How did the Kd turn out when B1 was run?
**A.** Its Kd is 114 nM.

Source: paper doi:10.1101/2024.05.23.595592
